The numbers were not newly measured in paper PMC5007751, which cites them from elsewhere.

One may read the Kd as the concentration at which binding is half-saturated.

The target in this series is RNA helicase A distal portion of helicase domain (Homo sapiens) (UniProt Q08211).
Chain of UniProt Q08211 (Q08211 630-1020): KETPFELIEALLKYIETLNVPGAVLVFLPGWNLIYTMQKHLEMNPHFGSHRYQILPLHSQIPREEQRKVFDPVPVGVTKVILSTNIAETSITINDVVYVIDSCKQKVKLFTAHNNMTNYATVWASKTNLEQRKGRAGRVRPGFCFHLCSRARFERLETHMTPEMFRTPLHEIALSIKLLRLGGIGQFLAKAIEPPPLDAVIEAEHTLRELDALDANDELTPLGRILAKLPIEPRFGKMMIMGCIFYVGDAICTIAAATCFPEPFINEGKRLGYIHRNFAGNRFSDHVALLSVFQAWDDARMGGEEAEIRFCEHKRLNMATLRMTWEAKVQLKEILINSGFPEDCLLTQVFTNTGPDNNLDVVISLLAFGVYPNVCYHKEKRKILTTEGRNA

On to EWS/FLI (from UniProt Q01844), for which the equilibrium dissociation constant (Kd) was 9.48 µM.
